Laboratory results reported in patent US20020107174A1, “COMPOSITION COMPRISING ENDOTOXIN NEUTRALIZING PROTEIN AND DERIVATIVES AND USES THEREOF” (priority 1998, published 2002).

How the values were obtained:
[1] = test system: Propionibacterium acnes, ATCC No. 11827; assay: Zone inhibition assay; assay type: cell-based; settings: 4 mm disc treated with 10 μl (Limulus ENP 1 mg/ml; benzoyl peroxide 0.05%), overnight at 37° C.
Protocol: The inhibitory effect of a recombinant Limulus ENP (i.e., that expressed from the fusion protein II construct discussed above) was tested against Propionibacterium acnes, the bacterium that causes acne, using a zone inhibition assay. Petri dishes were filled with sterile nutrient agar following standard microbiological procedures. The nutrient agar-filled dishes were allowed to cool and harden before being inoculated with test bacteria. Using a sterile swab, the surface of the petri dishes were inoculated with a culture of Propionibacterium acnes, ATCC No. 11827, that had grown overnight at 37° C.
Sterile filter paper discs (4 mm, Whatman) were treated with 10 μl of aqueous solutions of (1) recombinant Limulus ENP at a concentration of 1 mg/ml (the test sample); (2) benzoyl peroxide at a concentration of 0.05% (the positive control); or (3) sterile saline (the negative control). Benzoyl peroxide serves as a positive control because it is known to inhibit the growth of Propionibncterium acnes.
The treated filter paper discs were placed on the inoculated plates and the plates incubated overnight at 37° C. The Limulus ENP disc produced a zone of inhibition having a diameter of 4-5 mm. The benzoyl peroxide disc produced a zone of inhibition having a diameter of 10-11 mm. The negative control disc produced no zone of inhibition.

E. coli endotoxins = settings: rabbits, cited from earlier work
meningococcal endotoxins = settings: rabbits, cited from earlier work
E. coli strain 25303 = assay: Growth inhibition of E. coli in Luria broth, optical density (LAL 5000); assay type: cell-based
Protocol: E. coli cells were cultured overnight at 37° C. in LB. Aliquots were diluted 1:100 in fresh LB (control). LB plus PMB was serially diluted from 0.25 μg/ml to 0.001 μg/ml. LB plus Limulus ENP was formulated at concentrations from 20 to 0.07,μg/ml. Optical density of the cell culture was recorded at 410 nm during the course of the experiment.
The tubes were then inoculated with cells of a log phase E. coli culture.
TET was serially diluted with LB in ten-fold increments from 10 μg/ml to 0.0001 μg/ml.
E. coli cells were cultured overnight at 37° C. in LB. Aliquots of the culture were diluted 1:100 in fresh LB as controls. Test samples consisted of cells in: LB plus AMP at 2.5 μg/ml; LB plus Limulus ENP at 25 and 5 μg/ml; and combination of 2.5 μg/ml AMP and either 2.5 or 5.0 μg/ml Limulus ENP. Optical density of the cell samples was recorded at 410 nm during the course of the experiment.

E. coli cultures = assay: Endotoxin levels in antibiotic-inhibited cultures, Limulus amebocyte lysate (LAL) assay; assay type: cell-based
Protocol: Antibiotic-inhibited gram-negative bacteria release endotoxins into the medium. […] E. coli cultures treated with antibiotic alone or in combination with Limulus ENP were prepared and incubated as described in Sections 6.3.1 and 6.3.2, above. The endotoxin levels present in the cultures were measured using the standard Limulus amebocyte lysate (LAL) assay.

Bortadella sp. = assay: Growth inhibition of Bortadella sp., optical density; settings: GMS alone
Protocol: An LAL 5000 spectrophotometer (Associates of Cape Cod) was used to monitor optical density changes over time when bacteria were grown in sterilized Luria broth (LB). The LAL 5000 can accommodate up to 32 individual 10×75 mm glass test tubes in its circular array. Automated temperature control was maintained at 37° C. for these experiments. LB was placed into sterile, oven depyrogenated glass test tubes. […] Other gram-negative (E. coli strains Rosenbergii sp., K12, X10, HB101, Shewanella sp., Bortadella sp.) and gram-positive bacteria (e.g., S. aureus, and Bacillus spp.) were grown in this manner and changes in optical density were monitored over time. The optical density data was collected, stored and analyzed by computer which was interfaced with the LAL 5000.
The tubes were then inoculated with cells from a log phase culture of Bortadella sp. Optical density of each tube was monitored via method described above.

[2] = test system: Pool 4 (Yeast): Candida parapilosis, C. albicans; assay: Preservative challenge of oil in water emulsion, plate count, Pool 4; assay type: cell-based; settings: 0.01% (weight/volume) in emulsion, eight week period
Protocol: (§1) The cell numbers of the pools were quantitated by serial dilution. That is, the number of viable cells was determined by taking an aliquot from the sample, diluting it and culturing it so that colonies arising from individual cells could be counted.
(§2) An oil in water emulsion was prepared comprising the following ingredients:
(§3) To test its antimicrobial activity, Limulus ENP was added to the emulsion to achieve a concentration of about 0.01 weight percent, with appropriate adjustment of distilled water. Control and Limulus ENP-containing emulsions were inoculated with 10^8 viable cells from each of the five microorganism pools. The number of viable microbial cells was determined by plate count at the time of the initial inoculating, and at weekly intervals up to 8 weeks. After obtaining an aliquot for cell count at Week 3, microbes were re-inoculated to initial levels. The weekly cell counts are shown in Table 5 as logs of the cell number.

[3] = test system: Pool 5 (Fungi): Aspergillus niger; assay: Preservative challenge of oil in water emulsion, plate count, Pool 5; assay type: cell-based; settings: 0.01% (weight/volume) in emulsion, eight week period
Protocol: as §1, §2, §3

endotoxins = assay: Biological activity of recombinant Limulus ENP from S. cerevisiae; settings: from pCGS965-transformed S. cerevisiae
From the text: In one yeast expression system, an expression construct encoding the aforementioned fusion protein I was inserted into an autonomous replicating plasmid yielding pCGS965 (FIG. 9). This plasmid, in turn, was used to transform S. cerevisiae strain 2470. pCGS965 carries the gene for uracil production, which complements the host strain's auxotrophy for this base. Recombinant Limulus ENP has been expressed, purified, and characterized from pCGS965-transformed cells grown at the 500 liter scale. Fusion protein I was expressed and correctly processed, and the Limulus ENP secreted into the medium. The recombinantly produced Limulus ENP has biological activity identical to that of ENP isolated from Limulus amebocytes.

[4] = test system: uncharacterized gram-positive bacterium isolated from marine organisms; assay: Growth inhibition of gram-positive bacterium from marine organisms, optical density at 410 nm; assay type: cell-based; settings: Limulus ENP at 2.5 or 5 μg/ml
Protocol: An uncharacterized gram-positive bacterium isolated from marine organisms was cultured overnight at 37° C. in LB. Aliquots of the culture were diluted 1:100 in fresh LB as controls. Test samples consisted of cells in LB plus LimulusENP at 2.5 or 5.0 μg/ml. The control and Limulus ENP-treated cultures were incubated at 37° C. Optical density of the cultures was recorded at 410 nm during the course of the experiment to monitor the growth of the gram-positive bacterium.

murine splenocytes = settings: cited from earlier work
E. coli = settings: rabbits; cited from earlier work
[5] = test system: endotoxins or lipid A from gram-negative bacteria; settings: ENP added in excess; cited from earlier work
[6] = test system: Escherichia coli endotoxin; settings: rats; cited from earlier work
human macrophages = settings: cited from earlier work
[7] = test system: encapsulated strain of E. coli; settings: rats, cited from earlier work
[8] = test system: rough gram-negative bacteria; settings: cited from earlier work
human endothelial cells = settings: cited from earlier work
[9] = compared with anti-endotoxin antibody HA-1A

O=C(OOC(=O)c1ccccc1)c1ccccc1 [benzoyl peroxide, reference compound]
zone of inhibition, diameter [1]: 10-11 mm

polymixin B [PMB, reference compound]
shock and mortality (E. coli endotoxins; pretreatment with PMB, potent dose of E. coli endotoxins): effective in preventing shock and mortality | physiologic functions or mortality (meningococcal endotoxins; pretreatment with PMB alone): failed to improve | inhibition of growth of E. coli (E. coli strain 25303; 0.06 μg/ml PMB alone): approximately 20% | lowest effective concentration which totally inhibited the growth of E. coli (E. coli strain 25303; PMB alone, Luria broth): 5 µg/mL | ENDOTOXIN LEVEL (E. coli cultures; E. coli cultures inhibited by PMB at 5 μg/ml): 3.8 µg/mL

gentamycin sulfate [GMS]
lowest effective concentration which almost totally inhibited the growth of Bortadella sp. (Bortadella sp.): 10 µg/mL | effective concentration which substantially inhibits the growth of E. coli (E. coli strain 25303; GMS alone, Luria broth): 0.5 µg/mL

B1: Limulus ENP: the 11.8 kDa ENP from the horseshoe crab Limulus polyphemus; residues 5 to 105 of SEQ ID NO:2 or SEQ ID NO:5 (protein, listed as Limulus polyphemus)
chain: DGIWTQLIFTLVNNLATLWQSGDFQFLDHECHYRIKPTFRRLKWKYKGKFWCPSWTSITGRATKSSRSGAVEHSVRNFVGQAKSSGLITQRQAEQFISQYN
killing and re-growth of the yeasts Candida parapilosis and Candida albicans [2]: effective at killing and preventing the re-growth | effect on the fungus Aspergiltus niger [3]: limited fungal growth | biological activity compared with ENP isolated from Limulus amebocytes (endotoxins): identical | effect of serum proteins on biological activity, antimicrobial properties and endotoxin binding activity (E. coli cultures; serum-containing media): did not adversely affect | growth of the gram-positive bacterium [4]: effectively inhibited | zone of inhibition, diameter [1]: 4-5 mm

B2: ENP: protein found in horseshoe crab amebocyte lysates that binds and neutralizes the biological activity of endotoxins (protein, listed as Limulus polyphemus)
chain: B1 chain
physiological functions and survival rate (E. coli endotoxins; 2.5 or 5 mg/kg before lethal endotoxin challenges): significantly improved | survival rates (E. coli endotoxins; administered 30 min. after endotoxin challenge): improved survival rates | endotoxin induction of mitogenesis of murine splenocytes (murine splenocytes): inhibit | survival rate with E. coli sepsis (E. coli): improve the survival rate | endotoxin activity in the mixture [5]: greatly reduced | physiological functions and survival rate (meningococcal endotoxins; administered 30 minutes after meningococcal endotoxin challenges): significantly improved | protection against lethal meningococcal challenge (meningococcal endotoxins): protective | protection against lethal Escherichia coli endotoxin challenge [6]: protective | endotoxin induction of release of tumor necrosis factor by human macrophages (human macrophages): inhibit | circulating endotoxin concentrations [7, 9]: significantly lower | survival rates [7, 9]: improved survival rates | lethal effect of endotoxins released by the infecting E. coli ([7]; dose of 50 mg/kg, also when administered after endotoxin had circulated): blocked the lethal effect | survival rate with E. coli sepsis [7]: improve the survival rate | growth of rough gram-negative bacteria [8]: inhibits the growth | endotoxin induction of activation of human endothelial cells (human endothelial cells): inhibit
